Results on 75 sequences are retold here after the supplement of paper PMC7877785.

± gives the uncertainty stated by the source.

The series is described as follows: self-splicing fitness, log relative to wild type (ln ratio); higher = more splicing; Tetrahymena group I intron in knt gene, E. coli kanamycin selection, DiMSum; sequences stand for … in CUCUCU…GGAGGGAAAAGUUAUCAGGCAUGCACCUGGUAGCUAGUCUUUAAACCAAUAGAUUGCAUCGGUUUAAAAGGCAAGACCGUCAAAUUGCGGGAAAGGGGUCAACAGCCGUUCAGUACCAAGUCUCAGGGGAAACUUUGAGAUGGCCUUGCAAAGGGUAUGGUAAUAAGCUGACGGACAUGGUCCUAACCACGCAGCCAAGUCCUAAGUCAACAGAUCUUCUGUUGAUAUGGAUGCAGUUCACAGACUAAAUGUCGGUCGGGGAAGAUGUAUUCUUCUCAUAAGAUAUAGUCGGACCUCUCCUUAAUGGGAGCUAGCGGAUGAAGUGAUGCAACACUGGAGCCGCUGGGAACUAAUUUGUAUGCGAAAGUAUAUUGAUUAGUUUUGGAGUACUCGUGGUCG
The essentials: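 Fitness was computed with DiMSum as the error-weighted combination of replicate fold changes, kanamycin versus none, each normalised to wild type. The library randomised all eight intron nucleotides of the P1ex region, with the intron placed in the knt kanamycin-resistance gene on pET-22b(+) in E. coli BL21(DE3). Six replicate transformations were grown overnight at 37°C or 30°C on LB agar with or without 25 μg/mL kanamycin, plus 100 μg/mL carbenicillin, 50 μM IPTG and 0.2% rhamnose. Pooled colonies were amplicon-sequenced on an Illumina HiSeq 2500.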

With CGUAAGCAAUAUUACGUGUG, the “self-splicing fitness (ln)” value is -1.29 ± 0.063 (30 °C) and -0.745 ± 0.078 (37 °C).
For CGUCAGCAAUAUUACGAAAC the same measures were -3.63 ± 0.32 and -1.6 ± 0.32.
For CGUCAGCAAUAUUACGAACU the same measures were -0.352 ± 0.095 and -0.0116 ± 0.11.
With CGUCAGCAAUAUUACGACGG, the “self-splicing fitness (ln)” value by setting is: (30 °C) -0.836 ± 0.081; (37 °C) -0.516 ± 0.12.
Take CGUCAGCAAUAUUACGAGCC: the “self-splicing fitness (ln)” value (30 °C) is -2.25 ± 0.48.
With CGUCAGCAAUAUUACGAGGA, the “self-splicing fitness (ln)” value is -2.27 ± 0.19 (30 °C) and -2.38 ± 0.28 (37 °C).
For CGUCAGCAAUAUUACGCAAG the same measures were -0.161 ± 0.07 and -0.63 ± 0.091.
On to CGUCAGCAAUAUUACGCAAU, for which the “self-splicing fitness (ln)” value is -1.37 ± 0.1 (30 °C) and -2.12 ± 0.24 (37 °C).
For CGUCAGCAAUAUUACGCACA the same measures were -0.869 ± 0.09 and 0.0106 ± 0.13.
The like results for CGUCAGCAAUAUUACGCCCU were, in that order, -1.89 ± 0.15 and -0.223 ± 0.23.
The like results for CGUCAGCAAUAUUACGCCGU were, in that order, -2.49 ± 0.12 and 0.143 ± 0.11.
For the sequence CGUCAGCAAUAUUACGCCUA, the “self-splicing fitness (ln)” value by setting is: (30 °C) -2.32 ± 0.29; (37 °C) -0.757 ± 0.18.
The like results for CGUCAGCAAUAUUACGCGAG were, in that order, -4.12 ± 0.36 and -0.926 ± 0.17.
Take CGUCAGCAAUAUUACGCGUC: the “self-splicing fitness (ln)” value (30 °C) was -2.38 ± 0.42.
Regarding CGUCAGCAAUAUUACGGCAA, the “self-splicing fitness (ln)” value reads like this: (30 °C) -1.75 ± 0.14; (37 °C) -1.89 ± 0.13.
The like results for CGUCAGCAAUAUUACGGCCC were, in that order, -1.75 ± 0.17 and -0.728 ± 0.24.
For CGUCAGCAAUAUUACGUAAG the same measures were 0.214 ± 0.054 and 0.2 ± 0.07.
For CGUCAGCAAUAUUACGUACC the same measures were -1.33 ± 0.13 and 0.208 ± 0.15.
As to CGUCAGCAAUAUUACGUACG, the “self-splicing fitness (ln)” value runs as follows: (30 °C) -3.6 ± 0.43; (37 °C) -2.97 ± 0.37.
For the sequence CGUCAGCAAUAUUACGUCGA, the “self-splicing fitness (ln)” value runs as follows: (30 °C) -2.18 ± 0.1; (37 °C) -1.77 ± 0.14.
As for CGUCAGCAAUAUUACGUUGG, the “self-splicing fitness (ln)” value is -3.57 ± 0.11 (30 °C) and -2.78 ± 0.16 (37 °C).
For CGUGAGCAAUAUUACGAAAA, the “self-splicing fitness (ln)” value (37 °C) was -2.88 ± 0.43.
On to CGUGAGCAAUAUUACGACGU, for which the “self-splicing fitness (ln)” value (30 °C) was -2.12 ± 0.19 and the “self-splicing fitness (ln)” value (37 °C) was -2.37 ± 0.18.
For CGUGAGCAAUAUUACGAGUG the same measures were -1.24 ± 0.12 and 0.147 ± 0.16.
The like results for CGUGAGCAAUAUUACGAGUU were, in that order, -3.88 ± 0.47 and -3.72 ± 0.36.
For CGUGAGCAAUAUUACGCACU the same measures were -0.892 ± 0.13 and -0.687 ± 0.13.
As for CGUGAGCAAUAUUACGCAUC, the “self-splicing fitness (ln)” value runs as follows: (30 °C) -1.85 ± 0.48; (37 °C) -2.43 ± 0.35.
For CGUGAGCAAUAUUACGCGUG the same measures were -2 ± 0.13 and -0.684 ± 0.1.
For CGUGAGCAAUAUUACGCUUC the same measures were -3.91 ± 0.41 and -3.07 ± 0.43.
The like results for CGUGAGCAAUAUUACGGAAG were, in that order, -1.17 ± 0.1 and -1.01 ± 0.13.
As for CGUGAGCAAUAUUACGGCGA, the “self-splicing fitness (ln)” value is -2.31 ± 0.36 (30 °C) and -0.845 ± 0.34 (37 °C).
The like results for CGUGAGCAAUAUUACGGCGC were, in that order, -3.69 ± 0.34 and -2.43 ± 0.37.
For CGUGAGCAAUAUUACGGUGA the same measures were -2.84 ± 0.31 and -2.04 ± 0.38.
CGUGAGCAAUAUUACGUAUA: the “self-splicing fitness (ln)” value reads like this: (30 °C) -2.71 ± 0.18; (37 °C) -1.55 ± 0.18.
On to CGUGAGCAAUAUUACGUCAU, for which the “self-splicing fitness (ln)” value (30 °C) is -2.46 ± 0.21 and the “self-splicing fitness (ln)” value (37 °C) is -2.81 ± 0.24.
As for CGUGAGCAAUAUUACGUCCG, the “self-splicing fitness (ln)” value is -1.95 ± 0.16 (30 °C) and -0.866 ± 0.22 (37 °C).
In the case of CGUGAGCAAUAUUACGUGCA, the “self-splicing fitness (ln)” value by setting is: (30 °C) -1.36 ± 0.13; (37 °C) 0.0971 ± 0.14.
With CGUGAGCAAUAUUACGUUGA, the “self-splicing fitness (ln)” value by setting is: (30 °C) -2.89 ± 0.3; (37 °C) -2.94 ± 0.43.
For CGUGAGCAAUAUUACGUUGC, the “self-splicing fitness (ln)” value by setting is: (30 °C) -2.69 ± 0.21; (37 °C) -2.51 ± 0.32.
The like results for CGUGAGCAAUAUUACGUUGG were, in that order, -2.62 ± 0.12 and -1.45 ± 0.11.
The like results for CGUUAGCAAUAUUACGAAAA were, in that order, -2.76 ± 0.49 and -1.83 ± 0.3.
The like results for CGUUAGCAAUAUUACGAACC were, in that order, -0.385 ± 0.069 and -0.0684 ± 0.073.
Consider CGUUAGCAAUAUUACGACCU, for which the “self-splicing fitness (ln)” value by setting is: (30 °C) -0.403 ± 0.2; (37 °C) -0.596 ± 0.18.
For CGUUAGCAAUAUUACGAGCA the same measures were -0.917 ± 0.09 and -0.809 ± 0.089.
For CGUUAGCAAUAUUACGAGCC the same measures were -2.52 ± 0.21 and 0.132 ± 0.17.
The like results for CGUUAGCAAUAUUACGAUCA were, in that order, -0.373 ± 0.16 and 0.245 ± 0.17.
As for CGUUAGCAAUAUUACGAUGA, the “self-splicing fitness (ln)” value is -1.79 ± 0.13 (30 °C) and -0.842 ± 0.13 (37 °C).
Take CGUUAGCAAUAUUACGAUUG: the “self-splicing fitness (ln)” value runs as follows: (30 °C) -0.332 ± 0.073; (37 °C) -0.316 ± 0.084.
The like results for CGUUAGCAAUAUUACGCAGC were, in that order, -2.48 ± 0.25 and -3.07 ± 0.43.
The like results for CGUUAGCAAUAUUACGCCGC were, in that order, -3.14 ± 0.3 and -2.73 ± 0.43.
The like results for CGUUAGCAAUAUUACGCGAC were, in that order, -3.76 ± 0.26 and -1.84 ± 0.17.
As to CGUUAGCAAUAUUACGCGGC, the “self-splicing fitness (ln)” value (30 °C) was -2.07 ± 0.23 and the “self-splicing fitness (ln)” value (37 °C) is -2.19 ± 0.26.
For CGUUAGCAAUAUUACGCGGG the same measures were -3.91 ± 0.24 and -3.13 ± 0.29.
The like results for CGUUAGCAAUAUUACGCGGU were, in that order, -3.07 ± 0.19 and -3.35 ± 0.29.
For CGUUAGCAAUAUUACGCUAG the same measures were -2.66 ± 0.17 and -1.51 ± 0.25.
CGUUAGCAAUAUUACGCUCU: the “self-splicing fitness (ln)” value is -1.56 ± 0.14 (30 °C) and -1.07 ± 0.17 (37 °C).
Consider CGUUAGCAAUAUUACGGAGU, for which the “self-splicing fitness (ln)” value is -4.73 ± 0.31 (30 °C) and -3.23 ± 0.26 (37 °C).
The like results for CGUUAGCAAUAUUACGGCCA were, in that order, -1.01 ± 0.29 and -2.55 ± 0.46.
For CGUUAGCAAUAUUACGGGAG the same measures were -3.32 ± 0.2 and -2.39 ± 0.17.
The like results for CGUUAGCAAUAUUACGGUGC were, in that order, -3.11 ± 0.23 and -2.59 ± 0.5.
For CGUUAGCAAUAUUACGGUUA, the “self-splicing fitness (ln)” value (30 °C) was -1.55 ± 0.21 and the “self-splicing fitness (ln)” value (37 °C) is -1.66 ± 0.17.
The like results for CGUUAGCAAUAUUACGGUUC were, in that order, -3.01 ± 0.38 and -1.83 ± 0.31.
The like results for CGUUAGCAAUAUUACGUCGG were, in that order, -0.297 ± 0.1 and 0.0154 ± 0.14.
The like results for CGUUAGCAAUAUUACGUGAA were, in that order, -2.48 ± 0.15 and -1.45 ± 0.15.
For the sequence CGUUAGCAAUAUUACGUUUA, the “self-splicing fitness (ln)” value is -2.86 ± 0.23 (30 °C) and -2.63 ± 0.18 (37 °C).
For CUAAAGCAAUAUUACGACUC the same measures were -4.65 ± 0.46 and -2.38 ± 0.31.
For CUAAAGCAAUAUUACGAGUA the same measures were -3.16 ± 0.3 and -2.73 ± 0.36.
Regarding CUAAAGCAAUAUUACGAUAU, the “self-splicing fitness (ln)” value by setting is: (30 °C) -3.84 ± 0.19; (37 °C) -3.13 ± 0.18.
For CUAAAGCAAUAUUACGCCUC the same measures were -3.62 ± 0.21 and -1.85 ± 0.27.
The like results for CUAAAGCAAUAUUACGCGUG were, in that order, -1.09 ± 0.075 and 0.243 ± 0.11.
The like results for CUAAAGCAAUAUUACGCUGC were, in that order, -3.7 ± 0.47 and -2.53 ± 0.42.
As to CUAAAGCAAUAUUACGGAAU, the “self-splicing fitness (ln)” value reads like this: (30 °C) -3.72 ± 0.24; (37 °C) -2.14 ± 0.22.
The like results for CUAAAGCAAUAUUACGGCAU were, in that order, -3.69 ± 0.27 and -3.09 ± 0.4.
Turning to CUAAAGCAAUAUUACGGCGC, the “self-splicing fitness (ln)” value was -2.54 ± 0.21 (30 °C) and -2.38 ± 0.45 (37 °C).
Consider CUAAAGCAAUAUUACGGCGG, for which the “self-splicing fitness (ln)” value is, setting by setting: (30 °C) -0.171 ± 0.064; (37 °C) 0.0633 ± 0.081.
